Six proteins from article PMC7611467 (Journal of molecular biology, 2020) can be followed below.

Where a chain is given by its changes, count along the chain named.

The data set concerns the molecule itself. The experiment in a line: SEC.

B1: W37only single-Trp mutant of MgtE (natural protein, Thermus thermophilus, UniProt Q5SMG8 1-450, looked up)
chain: MEEKLAVSLQEALQEGDTRALREVLEEIHPQDLLALWDELKGEHRYVVLTLLPKAKAAEVLSHLSPEEQAEYLKTLPPFRLREILEELSLDDLADALQAVRKEDPAYFQRLKDLLDPRTRAEVEALARYEEDEAGGLMTPEYVAVREGMTVEEVLRFLRRAAPDAETIYYIYVVDEKGRLKGVLSLRDLIVADPRTRVAEIMNPKVVYVRTDTDQEEVARLMADYDFTVLPVVDEEGRLVGIVTVDDVLDVLEAEATEDIHKLGAVDVPDLVYSEAGPVALFLARVRFLVILILTGMVTSSILQGFESVLEAVTALAFYVPVLLGTGGNTGNQSATLIIRALATRDLDLRDFRRVFLKEMGVGLLLGLTLSFLLVGKVYFDGHPLLLPVVGVSLVLIVFFANLVGAMLPFLLRRLGVDPALVSNPLVATLSDVTGLLIYLSVARLLLEAV
For B1, the binding result is given as “binds”.

B2: W380only single-Trp mutant of MgtE (natural protein, Thermus thermophilus, UniProt Q5SMG8 1-450, looked up)
chain: B1 chain with W37F, F380W
In the case of B2, the binding result is reported as “binds”.

B3: W282only single-Trp mutant of MgtE (natural protein, Thermus thermophilus, UniProt Q5SMG8 1-450, looked up)
chain: B1 chain with W37F, F282W
Turning to B3, the binding result is listed as “binds”.

B4: W288only single-Trp mutant of MgtE (natural protein, Thermus thermophilus, UniProt Q5SMG8 1-450, looked up)
chain: B1 chain with W37F, F288W
For B4, the binding result was “binds”.

B5: W79only single-Trp mutant of MgtE (natural protein, Thermus thermophilus, UniProt Q5SMG8 1-450, looked up)
chain: B1 chain with W37F, F79W
For the protein B5, the binding result was “binds”.

B6: W352only single-Trp mutant of MgtE (natural protein, Thermus thermophilus, UniProt Q5SMG8 1-450, looked up)
chain: B1 chain with W37F, F352W
As to B6, the binding result was “binds”.
